# From article PMC4573853 (Genes & Development, 2015)
# No end group written: not given here.
# T1: Taf14 YEATS domain (residues 1-132) (S. cerevisiae, UniProt P35189 1-132)
# T1 sequence (looked up): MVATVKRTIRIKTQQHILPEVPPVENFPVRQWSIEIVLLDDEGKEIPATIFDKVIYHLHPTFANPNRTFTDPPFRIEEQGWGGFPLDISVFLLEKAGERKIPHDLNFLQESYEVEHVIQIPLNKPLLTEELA
# T2: Taf14 (residues 1-138) (S. cerevisiae, UniProt P35189 1-138)
# T2 sequence (looked up): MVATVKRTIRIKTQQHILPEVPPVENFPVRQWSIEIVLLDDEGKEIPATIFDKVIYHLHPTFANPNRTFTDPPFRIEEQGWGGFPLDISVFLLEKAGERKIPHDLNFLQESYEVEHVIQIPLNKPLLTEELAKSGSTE
# Assays:
# [1] = target: T1, Taf14 YEATS domain (residues 1-132); test: NMR titration
# Taf14 (residues 1-138) = target: T2, Taf14 (residues 1-138); test: crystal structure
binder,measurement,setting,value
"Ac-QTARK(Ac)STGG (peptide, UniProt P68431 6-14, looked up) [H3K9ac(5-13) peptide]",binding result,[1],binds
same,binding result,Taf14 (residues 1-138),binds
